Measured values: paper PMC4742251, “The Malarial Exported PFA0660w Is an Hsp40 Co-Chaperone of PfHsp70-x” (PLoS ONE, 2016)

Experiments:
Settings in all cases: both partners purified
HSPA1A-(His)6 [1] = molecular target: T1, HSPA1A-(His)6 (human, UniProt P0DMV8 1-641); assay: SPR; Hsp70s amine-coupled to a GLC chip (ProteOn XPR36); BSA, Hsj1a or PFA0660w at 1 μM as analyte in PBST pH 7.4, with and without 1 mM ATP; read qualitatively
T1 construct: human Hsp70 (HSPA1A); also called human Hsp70; HSPAIA

(His)6-PfHsp70-x = (His)6-PfHsp70-x (Plasmodium falciparum); assay: SPR; Hsp70s amine-coupled to a GLC chip (ProteOn XPR36); PFA0660w 200-1000 nM as analyte in PBST pH 7.4 with 1 mM ATP; 60 μl/min, 90 s contact, 300 s dissociation; separate fits of association and dissociation, KD calculated from the rate constants
(His)6-PfHsp70-1 = molecular target: T2, (His)6-PfHsp70-1 (Plasmodium falciparum, UniProt Q8IB24 1-677); assay: as above
T2 construct: PfHsp70-1, parasite-resident Hsp70 of Plasmodium falciparum

HSPA1A-(His)6 [2] = molecular target: T1, HSPA1A-(His)6; assay: as above

T1 sequence (P0DMV8 whole entry): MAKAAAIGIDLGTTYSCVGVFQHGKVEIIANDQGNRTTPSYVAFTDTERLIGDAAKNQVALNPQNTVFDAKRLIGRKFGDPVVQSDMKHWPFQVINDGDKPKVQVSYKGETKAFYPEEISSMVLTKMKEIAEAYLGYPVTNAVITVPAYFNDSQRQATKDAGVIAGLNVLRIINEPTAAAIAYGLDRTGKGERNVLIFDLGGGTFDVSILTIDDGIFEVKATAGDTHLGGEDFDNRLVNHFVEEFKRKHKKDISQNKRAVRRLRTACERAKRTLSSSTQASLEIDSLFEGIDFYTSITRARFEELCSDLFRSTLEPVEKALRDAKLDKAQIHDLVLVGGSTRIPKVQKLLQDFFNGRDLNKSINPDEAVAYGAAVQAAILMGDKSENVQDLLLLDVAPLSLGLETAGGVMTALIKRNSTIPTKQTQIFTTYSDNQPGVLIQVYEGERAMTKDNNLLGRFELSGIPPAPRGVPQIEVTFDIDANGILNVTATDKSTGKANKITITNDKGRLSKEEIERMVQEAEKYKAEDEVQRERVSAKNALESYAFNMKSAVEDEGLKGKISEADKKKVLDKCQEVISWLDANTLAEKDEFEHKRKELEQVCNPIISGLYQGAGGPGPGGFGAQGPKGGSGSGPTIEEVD

Binder | binding result (HSPA1A-(His)6 [1]) | Kd ((His)6-PfHsp70-x) [µM] | Kd ((His)6-PfHsp70-1) [µM] | Kd (HSPA1A-(His)6 [2]) [µM]
(His)6-Hsj1a (natural protein, UniProt P25686-2 1-277, looked up, Control Hsp40; also called DNAJB2a) MASYYEILDVPRSASADDIKKAYRRKALQWHPDKNPDNKEFAEKKFKEVAEAYEVLSDKHKREIYDRYGREGLTGTGTGPSRAEAGSGGPGFTFTFRSPEEVFREFFGSGDPFAELFDDLGPFSELQNRGSRHSGPFFTFSSSFPGHSDFSSSSFSFSPGAGAFRSVSTSTTFVQGRRITTRRIMENGQERVEVEEDGQLKSVTINGVPDDLALGLELSRREQQPSVTSRSGGTQVQQTPASCPLDSDLSEDEDLQLAMAYSLSEMEAAGKKPADVF | binds | – | – | –
(His)6-PFA0660w (natural protein) AEGNKNFFFNKDNGVFGKSSMDYYTLLGVDKGCSEDDLRRAYLKLAMKWHPDKHVNKGSKVEAEEKFKNICEAYSVLSDNEKRVKYDLFGMDALKQSGFNSSNFQGNISINPLEVFTKAYSFYNKYFSKSSGAGNHNIFTHIKNLYPLRNDFSEDESSYNDVEEYEVPLYVTLEDLYNGCTKTLKVTRKRYDGCYLYYEDYFINVDIKQGWNNGTKITFHGEGDQSSPDSYPGDLVLVLQTKKHSKFVRKSRDLYYRHIITLEQSLTGFDFVIKSLDNRDIHIQIDEVVKPDTKKVIKNEGMPYSRDPSIRGNLIVEFDIIYPNTIKKEQKKLIKEIFKESY | – | 0.037 | 0.251 | 0.064
